The subject of one test is Mcl-1. The experiment in a line: Mcl-1 immunohistochemistry on paired biopsies of phase I trial patients (NCT02977195). It counts as in vivo, human. As to the method: FIG. 7. Netrin-1 interference triggers Mcl-1 degradation in vitro and in vivo. (A,B): Netrin-1 silencing triggers Mcl-1 degradation. Breast cancer MCF7 cells were transfected with scramble (siCTRL) or netrin-1 (siNet) targeting siRNAs. 48 hours after transfection, cells were lysed by scraping and sonication in SDS-containing buffer. Protein levels of Mcl-1, netrin-1, and UNC5B, as well as B-actin and Ku80, used as housekeeping genes, were evaluated by western blot (A). Relative Mcl-1 protein levels, normalized to β-actin or Ku80, are shown in (B) (n=2, *** p<0.001, **** p<0.0001, ordinary two-way ANOVA with Sidak's multiple comparisons test). Activation of endogenous UNC5B upon netrin-1 silencing decreased Mcl-1 protein levels. Values are given as means±SEM. (C,D): Netrin-1 interference degrades Mcl-1 in a syngeneic breast cancer model. Stable EMT6 cells, constitutively over-expressing human Mcl-1, were engrafted in BALB/c mice. Once tumors reached a volume of 100 mm^3, mice were treated with Iso-mAb or NP137 antibodies and sacrificed 8 hours after treatment. Protein levels of Mcl-1 were then evaluated by western blot (C). […] Mcl-1 protein was quantified in paraffin-embedded slices on paired C1D1 and C3D1 biopsies and compared with clinical benefit (stable disease, SD, or progression disease, PD, at 6 weeks). Mcl-1 intensity was assessed in all, PD or SD biopsies (E) (n=6, Wilcoxon test). […]
The NP137 antibody is currently being assessed in several phase I and II clinical trials, in patients with advanced solid tumours. […] Mcl-1 presence was thus analysed by immunohistochemistry.
For histological examination of tumours engrafted in nude mice, ex vivo breast cancer slices, and from human clinical trial, tumours were fixed in 10% buffered formalin and embedded in paraffin. […] Quantification of caspase-3- and Mcl-1-positive cells was performed with HALO software and adapted algorithms cytonuclear v2.0.8 6 (Indica Labs, Albuquerque, NM, USA). MCL1 intensity, has been calculated in percentage over the surface of tumour cells. […]

For another test, the system named is H322 cells. Nature of the test: Xenografts of stable H322 cells in nude mice, tumor growth. It counts as in vivo, NMRI nude mice. The note with it: 10 mg/Kg intravenously three times per week, vs Iso-mAb. The procedure:
FIG. 3. COMMD2 is required for UNC5B-induced cell death and tumor suppression. (A): Silencing COMMD2 inhibits UNC5B-induced DNA fragmentation. Stable Hela cells inducible for UNC5B were transfected with two distinct siRNA scramble (siCTRL) or targeting COMMD2 (siCOMMD2-1 and -2). Upon treatment for 18 hours with the indicated concentrations of doxycycline (Dox), DNA fragmentation was evaluated through FACS analysis (n=3, **** p<0.0001, Ordinary two-way ANOVA). Values are given as means±SEM. (B, C, D): Tumor growth inhibition driven by netrin-1 interference necessitates UNC5B and COMMD2. NMRI nude mice were engrafted with stable H322 cells, knock-down for luciferase (sgLUC, used as a non-targeting control), UNC5B (sgUNC5B) or COMMD2 (sgCOMMD2), generated with CRISPR-Cas-9-KRAB strategy. Tumors obtained from nude mice engrafted with stable H322 cells were lysed and gene expression was evaluated by quantitative RT-PCR (n=2-3, *p<0.05, Kruskal-Wallis test with Dunn's multiple comparisons test) (B). After tumor volume reached 50 mm^3, mice were intravenously treated three time per week with anti-netrin-1 (NP137) or control (Iso-mAb) antibodies and tumor growth was evaluated (n=10 mice/group, ^nsp>0.05, *p<0.05, Mann-Whitney test, two-tailed) (C). A histogram illustrating tumor volumes at 35 days after first treatment is indicated in (D) (n=10 mice/group, ^nsp>0.05, *p<0.05, *** p<0.001, Kruskal-Wallis test with uncorrected Dunn's test). (E). Silencing of UNC5B and COMMD2 restrains in vivo NP137-induced apoptosis. After sacrificing the mice, tumors were resected and apoptosis was quantified by immunostaining of active cleaved caspase-3. […]
5-week-old female athymic NMRI nude mice were obtained from Janvier Labs (Saint Bertevin, France). […] Tumor size was measured three times per week with a caliper. Tumor volume was calculated according to the formula v=0.5× (l×w2), where v is volume, l is length, and w is width. […]

The text below walks through data of patent US20250215071A1, “Novel Mcl-1 inhibitor and combination of Mcl-1 and a BH3 mimetic, such as a Bcl-2 inhibitor” (NETRIS PHARMA, priority 2022, published 2025).

B1: NP137: humanized anti-netrin-1 monoclonal antibody, VH SEQ ID NO: 22, VL SEQ ID NO: 16, human IgG1 (antibody, V domains shown)
VH: QVQLQQSGPGLVKPSQTLSLTCAISGYTFTSYNMHWVRQATGQGLEWMGAIYPGNGDTSYNQKFKGRLTISKDTSKNQVVLTMTNMDPVDTATYYCARGGTGFAYWGQG
VL: DIQMTQSPSSLSASVGDRVTITCKASQSVSNDVAWYQQKPGQAPRLLIYYASNRYTGIPPRFSGSGYGTDFTLTINNIESEDAAYYFCQQDYSSPWTFGQG
modifications: human IgG1 constant region; humanized variant; MISC_FEATURE - CDR according to IGMT
In the case of B1, the “patient tumours with reduced Mcl-1 levels” value in the test on Mcl-1 (all twelve patients, 14 mg/kg once every two weeks, C3D1 vs C1D1 biopsies) was “nine out of the twelve”. The “patients with Mcl-1 decrease” value is on record as “three of the six” in the test on Mcl-1 (six patients with progression disease (PD) at 6 weeks) and “six patients with SD showed Mcl-1 decrease” in the test with Mcl-1 (six patients with stable disease (SD) at 6 weeks). Moreover, the tumor growth result in the test with H322 cells (H322 tumors knocked-out of COMMD2 (sgCOMMD2)) is listed as “less sensitive”; with H322 cells (H322 tumors knocked-out of UNC5B (sgUNC5B)) it was “less sensitive”; in the test with H322 cells (control H322 cells (sgLUC)) it was “strongly inhibited tumor growth”.
